Data on 24 molecules can be found in US20240343814A1.

B1: VRDN-02544 (antibody, V domains shown)
VH: EVQLVQSGGGLVKPGGSLRLSCAASGFTFSSFAMHWVRQAPGKGLEWISVIDTRGATYYADSVKGRFTISRDNAKNSLYLQMNSLRAEDTAVYYCARLGNFYYGMDVWGQGTTVTVSS
VL: EIVLTQSPGTLSVSPGERATLSCRASQSIGSSLHWYQQKPGQAPRLLIKYASQSHSGIPDRFSGSGSGTDFTLTISRLEPEDFAVYYCHQSSRLPHTFGQGTKVEIK
B2: VRDN-02559 (antibody, V domains shown)
VH: B1 VH with A33H, A96H
VL: B1 VL with H55L
B3: VRDN-02551 (antibody, V domains shown)
VH: B1 VH
VL: B1 VL with H55L, P95H
B4: VRDN-02545 (antibody, V domains shown)
VH: B1 VH
VL: B1 VL with H55L, S56H
B5: VRDN-02546 (antibody, V domains shown)
VH: B1 VH
VL: B1 VL with H55L, Q90H
B6: VRDN-02505 (antibody, V domains shown)
VH: B1 VH with S30H
VL: B1 VL with H55L
B7: VRDN-02549 (antibody, V domains shown)
VH: B1 VH
VL: B1 VL with H55L, R93H
B8: VRDN-02547 (antibody, V domains shown)
VH: B1 VH
VL: B1 VL with H55L, S91H
B9: VRDN-02565 (antibody, V domains shown)
VH: B1 VH with A96H, G104H
VL: B1 VL with H55L
B10: VRDN-02512 (antibody, V domains shown)
VH: B1 VH with R54H
VL: B1 VL with H55L
B11: VRDN-02507 (antibody, V domains shown)
VH: B1 VH with F32H
VL: B1 VL with H55L
B12: VRDN-02556 (antibody, V domains shown)
VH: B1 VH with G104H
VL: B1 VL with Y50H, H55L
B13: VRDN-02552 (antibody, V domains shown)
VH: B1 VH
VL: B1 VL with H55L, T97H
B14: VRDN-02506 (antibody, V domains shown)
VH: B1 VH with S31H
VL: B1 VL with H55L
B15: VRDN-02557 (antibody, V domains shown)
VH: B1 VH with M105H
VL: B1 VL with Y50H, H55L
B16: VRDN-02511 (antibody, V domains shown)
VH: B1 VH with T53H
VL: B1 VL with H55L
B17: VRDN-02567 (antibody, V domains shown)
VH: B1 VH with G104H, M105H
VL: B1 VL with H55L
B18: VRDN-02548 (antibody, V domains shown)
VH: B1 VH
VL: B1 VL with H55L, S92H
B19: VRDN-02510 (antibody, V domains shown)
VH: B1 VH with D52H
VL: B1 VL with H55L
B20: VRDN-02508 (antibody, V domains shown)
VH: B1 VH with A33H
VL: B1 VL with H55L
B21: VRDN-02560 (antibody, V domains shown)
VH: B1 VH with A33H, G104H
VL: B1 VL with H55L
B22: VRDN-02509 (antibody, V domains shown)
VH: B1 VH with M34H
VL: B1 VL with H55L
B23: VRDN-02566 (antibody, V domains shown)
VH: B1 VH with A96H, M105H
VL: B1 VL with H55L
B24: VRDN-02550 (antibody, V domains shown)
VH: B1 VH
VL: B1 VL with H55L, L94H

Where a chain is given by its changes, count along the chain named.

In one assay the target is Recombinant human his-tagged IGF 1R extracellular domain protein (human) (UniProt P08069). In words: SPR, captured IgG, IGF-1R ECD-his analyte, dissociation pH 6. For orientation: Surface plasmon resonance follows binding to a sensor surface in real time, without labels.
Turning to B1, the equilibrium dissociation constant (Kd) was found to be 0.0275 nM, the koff came to 1e-06 s⁻¹ and the kon is 36300 M⁻¹ s⁻¹.

With B2, the Kd came out at 1.74 nM, the dissociation rate constant (koff) came out at 0.000567 s⁻¹ and the kon is 327000 M⁻¹ s⁻¹.

With B3, the Kd was determined as 0.0348 nM, the koff came to 1e-06 s⁻¹ and the kon was determined as 28700 M⁻¹ s⁻¹.

For B4, the dissociation constant Kd came to 0.027 nM, the off-rate (koff) is 1e-06 s⁻¹ and the kon is 37000 M⁻¹ s⁻¹.

For B5, the Kd turned out to be 0.0259 nM, the off-rate (koff) came to 1e-06 s⁻¹ and the kon is 38600 M⁻¹ s⁻¹.

Turning to B6, the equilibrium dissociation constant (Kd) came to 0.0422 nM, the koff was determined as 1e-06 s⁻¹ and the on-rate constant (kon) was determined as 23700 M⁻¹ s⁻¹.

For the molecule B7, the Kd amounted to 0.0251 nM, the off-rate (koff) worked out at 1e-06 s⁻¹ and the on-rate constant (kon) was 39800 M⁻¹ s⁻¹.

As for B8, the dissociation constant Kd came to 0.0251 nM, the koff amounted to 1e-06 s⁻¹ and the association rate constant (kon) amounted to 39800 M⁻¹ s⁻¹.

For B9, the Kd amounted to 5.77 nM, the off-rate constant (koff) amounted to 0.0198 s⁻¹ and the association rate constant (kon) stood at 3.43e+06 M⁻¹ s⁻¹.

As to B10, the equilibrium dissociation constant (Kd) amounted to 1.2 nM, the koff came out at 3.96e-05 s⁻¹ and the kon turned out to be 32900 M⁻¹ s⁻¹.

For the molecule B11, the Kd is 0.0469 nM, the dissociation rate constant (koff) was found to be 1e-06 s⁻¹ and the kon is 21300 M⁻¹ s⁻¹.

On to B12, for which the Kd came to 8.47 nM, the koff turned out to be 0.0146 s⁻¹ and the kon was found to be 1.72e+06 M⁻¹ s⁻¹.

In the case of B13, the Kd was 0.0239 nM, the koff was determined as 1e-06 s⁻¹ and the kon is 41900 M⁻¹ s⁻¹.

For the molecule B14, the dissociation constant (Kd) stood at 0.0267 nM, the off-rate constant (koff) came to 1e-06 s⁻¹ and the kon was 37400 M⁻¹ s⁻¹.

For the molecule B15, the Kd was determined as 0.615 nM, the off-rate constant (koff) turned out to be 0.00239 s⁻¹ and the kon was found to be 3.88e+06 M⁻¹ s⁻¹.

B16: the dissociation constant Kd came to 4.28 nM, the koff was 0.000672 s⁻¹ and the kon came to 157000 M⁻¹ s⁻¹.

Take B17: the Kd was determined as 5.41 nM, the off-rate constant (koff) is 0.000569 s⁻¹ and the kon is 105000 M⁻¹ s⁻¹.

On to B18, for which the Kd stood at 0.0251 nM, the dissociation rate constant (koff) worked out at 1e-06 s⁻¹ and the kon amounted to 39800 M⁻¹ s⁻¹.

As to B19, the Kd stood at 3.84 nM, the off-rate (koff) was determined as 0.000116 s⁻¹ and the kon was determined as 30200 M⁻¹ s⁻¹.

For the molecule B20, the Kd was found to be 3.9 nM, the dissociation rate constant (koff) came out at 0.000207 s⁻¹ and the kon came to 53100 M⁻¹ s⁻¹.

B21: the dissociation constant Kd was 0.996 nM, the off-rate constant (koff) was 0.000541 s⁻¹ and the association rate constant (kon) was 543000 M⁻¹ s⁻¹.

Turning to B22, the Kd was found to be 0.0285 nM, the dissociation rate constant (koff) worked out at 1e-06 s⁻¹ and the on-rate constant (kon) amounted to 35100 M⁻¹ s⁻¹.

With B23, the Kd was 3 nM, the koff is 0.00885 s⁻¹ and the association rate constant (kon) was found to be 2.95e+06 M⁻¹ s⁻¹.

For B24, the dissociation constant Kd turned out to be 0.027 nM, the koff was found to be 1e-06 s⁻¹ and the kon worked out at 37000 M⁻¹ s⁻¹.

The next assay shares this target. In words: SPR, captured IgG, IGF-1R ECD-his analyte, dissociation pH 7.4.
Turning to B1, the Kd came out at 0.483 nM, the off-rate (koff) was found to be 6.18e-05 s⁻¹ and the on-rate constant (kon) came out at 128000 M⁻¹ s⁻¹.

Take B2: the dissociation constant (Kd) stood at 0.593 nM, the koff was 0.000503 s⁻¹ and the on-rate constant (kon) came out at 849000 M⁻¹ s⁻¹.

Regarding B3, the dissociation constant (Kd) was determined as 0.771 nM, the off-rate (koff) was 6.38e-05 s⁻¹ and the kon turned out to be 82800 M⁻¹ s⁻¹.

For the molecule B4, the dissociation constant (Kd) came out at 0.622 nM, the koff came to 3.03e-05 s⁻¹ and the on-rate (kon) worked out at 48700 M⁻¹ s⁻¹.

As to B5, the Kd was found to be 0.491 nM, the dissociation rate constant (koff) worked out at 5.94e-05 s⁻¹ and the on-rate (kon) worked out at 121000 M⁻¹ s⁻¹.

Take B6: the Kd amounted to 2.6 nM, the koff was determined as 0.000375 s⁻¹ and the on-rate constant (kon) was 144000 M⁻¹ s⁻¹.

Regarding B7, the Kd stood at 0.327 nM, the koff was 3.89e-05 s⁻¹ and the kon turned out to be 119000 M⁻¹ s⁻¹.

B8: the equilibrium dissociation constant (Kd) stood at 0.0084 nM, the dissociation rate constant (koff) turned out to be 1e-06 s⁻¹ and the on-rate (kon) was found to be 119000 M⁻¹ s⁻¹.

Regarding B9, the Kd came out at 9.12 nM, the dissociation rate constant (koff) is 0.0243 s⁻¹ and the on-rate constant (kon) stood at 2.66e+06 M⁻¹ s⁻¹.

As for B10, the equilibrium dissociation constant (Kd) came to 6.08 nM, the koff amounted to 0.000271 s⁻¹ and the kon was found to be 44600 M⁻¹ s⁻¹.

On to B11, for which the Kd amounted to 0.1 nM, the koff was 1.99e-05 s⁻¹ and the kon was 199000 M⁻¹ s⁻¹.

Consider B12, for which the Kd came out at 10.4 nM, the koff was 0.0127 s⁻¹ and the kon worked out at 1.22e+06 M⁻¹ s⁻¹.

In the case of B13, the dissociation constant Kd stood at 0.0311 nM, the off-rate (koff) amounted to 1e-06 s⁻¹ and the kon is 32200 M⁻¹ s⁻¹.

With B14, the Kd amounted to 0.0143 nM, the dissociation rate constant (koff) was 1e-06 s⁻¹ and the kon was 69900 M⁻¹ s⁻¹.

For B15, the dissociation constant Kd amounted to 8.16 nM, the koff was 0.00119 s⁻¹ and the kon was 146000 M⁻¹ s⁻¹.

Take B16: the equilibrium dissociation constant (Kd) was found to be 41.6 nM, the koff was determined as 0.0319 s⁻¹ and the kon worked out at 766000 M⁻¹ s⁻¹.

Take B17: the dissociation constant Kd was found to be 2.77 nM, the koff worked out at 0.000473 s⁻¹ and the kon was 171000 M⁻¹ s⁻¹.

With B18, the dissociation constant Kd was found to be 0.721 nM, the koff is 8.72e-05 s⁻¹ and the kon came out at 121000 M⁻¹ s⁻¹.

In the case of B19, the Kd stood at 0.214 nM, the koff was found to be 5.3e-05 s⁻¹ and the kon amounted to 248000 M⁻¹ s⁻¹.

As for B20, the Kd was 0.00515 nM, the koff worked out at 1e-06 s⁻¹ and the on-rate constant (kon) came to 194000 M⁻¹ s⁻¹.

Take B21: the equilibrium dissociation constant (Kd) amounted to 0.933 nM, the koff was 0.0336 s⁻¹ and the on-rate constant (kon) stood at 3.61e+07 M⁻¹ s⁻¹.

Turning to B22, the dissociation constant Kd is 0.285 nM, the off-rate (koff) was determined as 4.81e-05 s⁻¹ and the on-rate (kon) stood at 169000 M⁻¹ s⁻¹.

On to B23, for which the dissociation constant (Kd) came out at 17.4 nM, the koff is 0.0197 s⁻¹ and the association rate constant (kon) is 1.14e+06 M⁻¹ s⁻¹.

In the case of B24, the Kd turned out to be 0.131 nM, the koff turned out to be 2.09e-05 s⁻¹ and the association rate constant (kon) was 160000 M⁻¹ s⁻¹.

In general, Kd refers to the constant that tells how readily two partners part at equilibrium. As a reminder, the koff is the first-order rate constant of dissociation. As a reminder, the kon is the rate constant with which the complex forms.
